Test results reported in paper PMC7480387.

Assays:
[1] = tested on: T1, GST-SfbR (Streptomyces filipinensis DSM 40112), ORF:e6e403b8; test: EMSA; settings: EMSA: 100 mM HEPES pH 7.6, 10 mM KCl, 5 mM MgCl2, 1 mM DTT, 1% Tween 20, 7.8 mM glutathione, 40 ug/ml poly[d(I-C)], 5% glycerol, 30 C, 10 min; 0.005 ng/ul …
T1 sequence: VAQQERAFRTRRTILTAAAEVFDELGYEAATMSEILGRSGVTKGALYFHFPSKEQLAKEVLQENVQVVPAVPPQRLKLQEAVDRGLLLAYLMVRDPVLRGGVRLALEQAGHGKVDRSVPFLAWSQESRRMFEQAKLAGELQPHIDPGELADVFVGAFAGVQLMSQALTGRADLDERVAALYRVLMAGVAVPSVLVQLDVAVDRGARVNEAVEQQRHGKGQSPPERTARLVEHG

[2] = tested on: T2, GST-SfbR2 (Streptomyces filipinensis DSM 40112), ORF:2e1db1fa; test: EMSA; settings: EMSA: 100 mM HEPES pH 7.6, 10 mM KCl, 5 mM MgCl2, 1 mM DTT, 1% Tween 20, 7.8 mM glutathione, 40 ug/ml poly[d(I-C)], 5% glycerol, 30 C, 10 min; 0.005 ng/ul …
T2 sequence: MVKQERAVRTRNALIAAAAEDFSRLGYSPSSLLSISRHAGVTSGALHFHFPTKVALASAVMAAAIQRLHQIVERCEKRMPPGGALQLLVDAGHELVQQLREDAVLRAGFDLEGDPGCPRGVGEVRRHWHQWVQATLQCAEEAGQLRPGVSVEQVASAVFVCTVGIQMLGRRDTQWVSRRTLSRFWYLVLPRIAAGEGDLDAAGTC

“GCGTGCTGCCCAGCCGTGCTGCAAAGCCGCCGAGTACTTCGATGTCCATCTCTCTCCCCCAGATCCGTACGCGCGGGGCCCGTCAGGCACGCGCGGGGTGTGGCGTAGCTCAGGGAACTCGGGACTTGCTTGACCACCAAATTAAACAGCATGGCCGGTTCTTTCTCCAGTGGAACCCGAGGATCCGTGCCGGCGCCGCCCGCGGCCCGCGCCGCGGGGCGCGGGTCCGCGGTCGGCGTCCTCGCAGGTCTGTCCGTGTGCCGGGGTGGTGTGC (double strand) [sfb7p]” was tested, and the binding [1] was “binds” and the binding [2] was “binds”.
